How the values were obtained:
[1] = substrate: NC(=O)c1ccc[n+]([C@@H]2O[C@H](COP(=O)(O)OP(=O)(O)OC[C@H]3O[C@@H](n4cnc5c(N)ncnc54)[C@H](OP(=O)(O)O)[C@@H]3O)[C@@H](O)[C@H]2O)c1; assay: purified protein; type: biochemical, Umboniibacter marinipuniceus; conditions: 1 mM DL-isocitrate, 50 mM Tris-HCl pH 8.5, 25 °C, apparent constant, varied: cofactor
[2] = substrate: NC(=O)c1ccc[n+]([C@@H]2O[C@H](COP(=O)(O)OP(=O)(O)OC[C@H]3O[C@@H](n4cnc5c(N)ncnc54)[C@H](O)[C@@H]3O)[C@@H](O)[C@H]2O)c1; assay: purified protein; type: biochemical, Umboniibacter marinipuniceus; conditions: 1 mM DL-isocitrate, 50 mM Tris-HCl pH 8.5, 25 °C, apparent constant, varied: cofactor

B1: UmIDH (Umboniibacter marinipuniceus) (protein)
chain: MTFQYILPPKSGEPIQHTQDNQIIVPDRPIIPYIEGDGIGIDITPVMLEVVDAAVAQAYKGKKSIAWMEVFCGEKAADIYEGDWFPPETLAALQKYSVAIKGPLTTPIGGGFRSLNVALRQELDLYVCQRPIQWFKGVPSVVRKPNAVKMVIFRENSEDIYAGIEWRAGSEEAIKVTRFLQEEMGVTSLRFTENCGLGVKPISEQGSKRLVRKAIEYAIAHDKPSVTMVHKGNIMKYTEGAFCEWGYEVACEEFGATHEADSPWLTIINPNTAAKIVIKDVIADAMMQEILMYPQDHSVIATMNLNGDYLSDALAAQVGGIGIAPGANIGDRIALFEPTHGTAPRLAGMDRVNPCSLILSAEMMLRHLGWTKAADLMVKGVKYTISDRTVTHDFHSMMEHAELLSTSEFGAAVIKNMRRR
notes: full-length, codon-optimised synthetic gene in pET28b (NdeI/XhoI), 6xHis tag, E. coli Rosetta (DE3); Type I IDH; putative coenzyme residues R345, L346, V352
Km ([1]; Mn2+ (2 mM)): 1167.7 ± 113.0 µM | kcat ([1]; Mn2+ (2 mM)): 11.1 ± 0.4 s⁻¹ | kcat/Km ([1]; Mn2+ (2 mM)): 9500 M⁻¹ s⁻¹ | Km ([2]; Mn2+ (2 mM)): 1800.0 ± 64.4 µM | kcat ([2]; Mn2+ (2 mM)): 7.5 ± 0.3 s⁻¹ | kcat/Km ([2]; Mn2+ (2 mM)): 4200 M⁻¹ s⁻¹

B2: UmIDH (Umboniibacter marinipuniceus; L346I/R345D/V352A) (protein)
chain: MTFQYILPPKSGEPIQHTQDNQIIVPDRPIIPYIEGDGIGIDITPVMLEVVDAAVAQAYKGKKSIAWMEVFCGEKAADIYEGDWFPPETLAALQKYSVAIKGPLTTPIGGGFRSLNVALRQELDLYVCQRPIQWFKGVPSVVRKPNAVKMVIFRENSEDIYAGIEWRAGSEEAIKVTRFLQEEMGVTSLRFTENCGLGVKPISEQGSKRLVRKAIEYAIAHDKPSVTMVHKGNIMKYTEGAFCEWGYEVACEEFGATHEADSPWLTIINPNTAAKIVIKDVIADAMMQEILMYPQDHSVIATMNLNGDYLSDALAAQVGGIGIAPGANIGDRIALFEPTHGTAPDIAGMDRANPCSLILSAEMMLRHLGWTKAADLMVKGVKYTISDRTVTHDFHSMMEHAELLSTSEFGAAVIKNMRRR
notes: as for B1
Km ([2]; metal not stated for mutants): 369.7 ± 11.84 µM | kcat ([2]; metal not stated for mutants): 17.7 ± 0.9 s⁻¹ | kcat/Km ([2]; metal not stated for mutants): 48000 M⁻¹ s⁻¹

B3: UmIDH (Umboniibacter marinipuniceus; L346Y/R345K) (protein)
chain: MTFQYILPPKSGEPIQHTQDNQIIVPDRPIIPYIEGDGIGIDITPVMLEVVDAAVAQAYKGKKSIAWMEVFCGEKAADIYEGDWFPPETLAALQKYSVAIKGPLTTPIGGGFRSLNVALRQELDLYVCQRPIQWFKGVPSVVRKPNAVKMVIFRENSEDIYAGIEWRAGSEEAIKVTRFLQEEMGVTSLRFTENCGLGVKPISEQGSKRLVRKAIEYAIAHDKPSVTMVHKGNIMKYTEGAFCEWGYEVACEEFGATHEADSPWLTIINPNTAAKIVIKDVIADAMMQEILMYPQDHSVIATMNLNGDYLSDALAAQVGGIGIAPGANIGDRIALFEPTHGTAPKYAGMDRVNPCSLILSAEMMLRHLGWTKAADLMVKGVKYTISDRTVTHDFHSMMEHAELLSTSEFGAAVIKNMRRR
notes: as for B1
Km ([1]; metal not stated for mutants): 605.9 ± 38.2 µM | kcat ([1]; metal not stated for mutants): 15.3 ± 0.2 s⁻¹ | kcat/Km ([1]; metal not stated for mutants): 25000 M⁻¹ s⁻¹
